Experimental data from patent publication US20240018240A1 (Hoffmann-La Roche, published 2024).
Numbering of substitutions follows the chain as printed.

B1: PLAP H1 CD3 P035.093 TCB (bispecific antibody, human IgG1, kappa, L234A L235A)
heavy 1: not shown
heavy 2: QVQLQESGPGLVKPSETLSLTCTVSGFSLTSYGVSWIRQPPGKGLEWIGVIWEDGSTNYHSALISRVTISVDTSKNQFSLKLSSVTAADTAVYYCARPHYGSSYVGAMEYWGAGTTVTVSSASTKGPSVFPLAPSSKSTSGGTAALGCLVEDYFPEPVTVSWNSGALTSGVHTFPAVLQSSGLYSLSSVVTVPSSSLGTQTYICNVNHKPSNTKVDEKVEPKSCDKTHTCPPCPAPEAAGGPSVFLFPPKPKDTLMISRTPEVTCVVVDVSHEDPEVKFNWYVDGVEVHNAKTKPREEQYNSTYRVVSVLTVLHQDWLNGKEYKCKVSNKALGAPIEKTISKAKGQPREPQVCTLPPSRDELTKNQVSLSCAVKGFYPSDIAVEWESNGQPENNYKTTPPVLDSDGSFFLVSKLTVDKSRWQQGNVFSCSVMHEALHNHYTQKSLSLSP
light 1: DIQMTQSPSSLSASVGDRVTITCRASENIYSYVAWYQQKPGKAPKLLIYNAKSLASGVPSRFSGSGSGTDFTLTISSLQPEDFATYYCQHHYVSPWTFGGGTKLEIKRTVAAPSVFIFPPSDRKLKSGTASVVCLLNNFYPREAKVQWKVDNALQSGNSQESVTEQDSKDSTYSLSSTLTLSKADYEKHKVYACEVTHQGLSSPVTKSFNRGEC
light 2: EVQLLESGGGLVQPGGSLRLSCAASGFTFSSYAMNWVRQAPGKGLEWVSRIRSKYNNYATYYADSVKGRFTISRDDSKNTLYLQMNSLRAEDTAVYYCVRASNFPASYVSYFAYWGQGTLVTVSSASVAAPSVFIFPPSDEQLKSGTASVVCLLNNFYPREAKVQWKVDNALQSGNSQESVTEQDSKDSTYSLSSTLTLSKADYEKHKVYACEVTHQGLSSPVTKSFNRGEC
notes: also called PLAP H1 TCB; PLAP (H1) TCB
B2: PLAP H2 CD3 P035.093 TCB (bispecific antibody, human IgG1, kappa, L234A L235A)
heavy 1: not shown
heavy 2: B1 heavy 2 with P41A, I69M
light 1: B1 light 1
light 2: B1 light 2
notes: also called PLAP H2 TCB; PLAP (H2) TCB
B3: PLAP H5 CD3 P035.093 TCB (bispecific antibody, human IgG1, kappa, L234A L235A)
heavy 1: not shown
heavy 2: B1 heavy 2 with F27G, L29V
light 1: B1 light 1
light 2: B1 light 2
notes: also called PLAP H5 TCB; PLAP (H5) TCB
B4: PLAP H3 CD3 P035.093 TCB (bispecific antibody, human IgG1, kappa, L234A L235A)
heavy 1: not shown
heavy 2: B1 heavy 2 with H60N, S61P, A62S, I64K
light 1: B1 light 1
light 2: B1 light 2
notes: 2+1 IgG CrossFab, inverted; also called PLAP H3 TCB; PLAP (H3) TCB
B5: PLAP H4 CD3 P035.093 TCB (bispecific antibody, human IgG1, kappa, L234A L235A)
heavy 1: not shown
heavy 2: B1 heavy 2 with F27G, L29I
light 1: B1 light 1
light 2: B1 light 2
notes: also called PLAP H4 TCB

Assays:
[1] = target: T1, Human CD3ε stalk-Fc(knob)-Avi/CD3δ stalk-Fc(hole) (human); test: SPR (Biacore T200, 25°C); TCB captured by anti-PG antibody on CM5 chip, 300 nM human CD3ε/δ injected; relative active concentration
T1 construct: Heterodimer of CD3 delta and CD3 epsilon ectodomains fused to a human Fc domain with knob-into-hole modifications and C-terminal Avi-tag; also called human CD3ε/δ; CD3ε/δ
Method: SPR experiments were performed on a Biacore T200 instrument (GE Healthcare) at 25° C. with HBS-P+(10 mM HEPES, 150 mM NaCl pH 7.4, 0.05% Surfactant P20) as running and dilution buffer. Anti-PG antibody (see Example 3) was immobilized by amine coupling (using amine coupling kit, Cytiva #BR100050) at a density of >6000 RU on a CM5 Chip (Sensor Chip CM5, Cytiva #29104988). The 10 nM solutions of TCB molecule samples in HBS-P+ were captured for 30 sec at a flow rate 10 μl/min. Then a 300 nM solution of human CD3ε/δ (see Example 3, SEQ ID NOs 24 and 25) was injected for 150 sec association time and 120 sec dissociation time at a flow rate of 10 μl/min. The regeneration of the surface followed by a 35 sec regeneration step with a 20 mM NaOH solution. The data were analyzed with the Biacore T200 Evaluation and Excel software. For the calculation of relative active concentration (RAC) the binding report point (BRP) was used (the BRP is a standard readout point in SPR, maximum response (unit/value) of interaction between antigen and antibody).

[2] = target: T2, human PLAP (ALPP) expressed on CHO-K1 cells (human, UniProt P05187 23-506); test: cell-based or functional assay
T2 sequence (P05187 23-506): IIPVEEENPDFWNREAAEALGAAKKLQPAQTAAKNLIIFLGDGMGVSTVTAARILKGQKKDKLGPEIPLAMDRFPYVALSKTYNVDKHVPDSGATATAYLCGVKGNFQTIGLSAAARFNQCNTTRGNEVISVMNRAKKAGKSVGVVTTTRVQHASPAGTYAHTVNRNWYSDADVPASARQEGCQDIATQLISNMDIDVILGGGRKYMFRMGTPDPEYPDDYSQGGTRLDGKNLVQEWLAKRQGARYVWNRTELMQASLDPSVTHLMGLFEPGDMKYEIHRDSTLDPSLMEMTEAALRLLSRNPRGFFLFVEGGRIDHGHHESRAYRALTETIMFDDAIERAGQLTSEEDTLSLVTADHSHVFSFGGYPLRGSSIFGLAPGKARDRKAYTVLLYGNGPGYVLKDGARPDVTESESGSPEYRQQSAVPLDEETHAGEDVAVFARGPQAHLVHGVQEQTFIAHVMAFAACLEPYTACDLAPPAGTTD

[3] = target: human ALPG (ALPPL2) expressed on CHO-K1 cells (human, UniProt P10696 20-503); test: cell-based or functional assay
[4] = target: T2, human PLAP (ALPP) expressed on CHO-K1 …; test: cell-based or functional assay; remark: listed apart in the source
[5] = target: T3, cynomolgus PLAP (ALPP) expressed on CHO-K1 cells (cynomolgus, UniProt P05187 23-452 (human entry)); test: cell-based or functional assay
T3 chain: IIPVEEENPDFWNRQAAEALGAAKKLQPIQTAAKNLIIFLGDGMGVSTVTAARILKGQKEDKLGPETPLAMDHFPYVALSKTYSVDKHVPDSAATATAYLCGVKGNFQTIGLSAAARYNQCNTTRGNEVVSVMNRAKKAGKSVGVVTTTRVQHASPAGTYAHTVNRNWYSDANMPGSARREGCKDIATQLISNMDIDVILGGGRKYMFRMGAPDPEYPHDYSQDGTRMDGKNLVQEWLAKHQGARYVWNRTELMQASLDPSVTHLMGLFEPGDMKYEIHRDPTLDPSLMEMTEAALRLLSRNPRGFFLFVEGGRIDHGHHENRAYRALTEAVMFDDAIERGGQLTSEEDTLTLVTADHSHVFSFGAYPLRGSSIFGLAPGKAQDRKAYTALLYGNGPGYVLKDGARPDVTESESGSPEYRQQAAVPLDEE

[6] = target: T1, Human CD3ε stalk-Fc(knob)-Avi/CD3δ …; test: SPR RAC assay (Biacore T200, 25°C); TCB captured by anti-PG antibody on CM3 chip, 200 nM human CD3ε/δ injected after 100 nM human PLAP
Method: (§1) SPR experiments were performed on a Biacore T200 instrument (GE Healthcare). For the immobilization. HBS-N pH 7.4 was used as a running buffer (Cytiva #BR100670). Anti-PG antibody (see Example 3) was immobilized by amine coupling (using amine coupling kit, Cytiva #BR100050) at a density of >6000 RU on a CM3 Chip (Cytiva #29104990). The anti-PG antibody stock solution was diluted to a concentration of 25 μg/mL in a 10 mM sodium acetate buffer of pH 5.0 (Cytiva #BR100351). After the immobilization the analysis was performed at 25° C., and using PBS-P+ (Cytiva #28995084) as a running and a dilution buffer. The 5 nM solutions of TCB molecule samples in PBS-P+ were captured for 30 sec at a flow rate 5 μl/min. Then a 100 nM solution of human PLAP was injected for 90 sec association time and 30 sec dissociation time at a flow rate of 8 μl/min. Thereafter, a 200 nM solution of human CD3ε/δ (see Example 3, SEQ ID NOs 24 and 25) was injected for 90 sec association time and 30 sec dissociation time at a flow rate of 8 μl/min. The regeneration of the surface followed by two 60 sec regeneration steps with a 10 mM NaOH solution. The data were analyzed with the Biacore T200 Evaluation and Excel software. For the calculation of relative active concentration (RAC) the binding report point (BRP) was used. To calculate the RAC, the target and antibody concentrations were referenced to the unstressed sample (−80° C.) as 100% comparison. For the normalization of the protein concentration, reference was made to anti-PG antibody capturing (RAC values).

[7] = target: T1, Human CD3ε stalk-Fc(knob)-Avi/CD3δ …; test: SPR single cycle kinetics (Biacore T200, 25°C); TCB captured by anti-PG antibody on CM3 chip, human CD3ε/δ as analyte
Method: (§2) The binding kinetics of the PLAP TCB molecules generated in Example 17 were characterized by the single cycle kinetic (SSK) assay. For this assay, again the SPR Biacore T200 was used. The immobilization was performed at 25° C. with HBS-N pH 7.4 as a running buffer (Cytiva #BR100670). The anti-PG antibody (see Example 3) was immobilized by amine coupling (using amine coupling kit, Cytiva #BR100050) at a density of >5000 RU on a CM3 Chip (Cytiva #29104990). The anti-PG antibody stock solution was diluted to a concentration of 25 μg/mL in a 10 mM sodium acetate buffer of pH 5.0 (Cytiva #BR100351). After the immobilization the analysis was performed at 25° C., and PBS-P+(Cytiva #28995084) was used as a running and a dilution buffer. The 3 nM solutions of TCB molecule samples in PBS-P+ were captured with anti-PG antibody on a CM3 sensor chip.
(§3) The derived kinetic rate constants and corresponding affinity values (equilibrium dissociation constant KD) are summarized in Table 26 for the CD3 binder and in Table 27 for the PLAP binder. The data were analyzed with the Biacore T200 Evaluation and Excel software.

[8] = target: T4, Human PLAP (soluble, as injected in SPR) (human, UniProt P05187 23-506); test: SPR single cycle kinetics (Biacore T200, 25°C); TCB captured by anti-PG antibody on CM3 chip, human PLAP as analyte
T4 construct: also called PLAP target
T4 sequence (P05187 23-506 limits assumed): as the sequence (P05187 23-506) above
Method: as §2, §3

[9] = target: T4, Human PLAP (soluble, as injected in SPR); test: SPR RAC assay (Biacore T200, 25°C); TCB captured by anti-PG antibody on CM3 chip, 100 nM human PLAP injected
Method: as §1

| RAC % of CD3 binding, stress A [1] [%] | RAC % of CD3 binding, stress B [1] [%] | RAC % of CD3 binding, unstressed [1] [%] | EC50 (pM), Jurkat NFAT reporter assay (luminescence, 6 h) [2] [pM] | EC50 (pM), Jurkat NFAT reporter assay (luminescence, 6 h) [3] [pM] | EC50 (pM), Jurkat NFAT reporter assay to show cynomolgus cross-reactivity [4] [pM] | EC50 (pM), Jurkat NFAT reporter assay to show cynomolgus cross-reactivity [5] [pM] | RAC [%] CD3 binding, stress A [6] [%] | RAC [%] CD3 binding, stress B [6] [%] | RAC [%] CD3 binding, unstressed [6] [%] | Kd [7] [nM] | koff [7] [s⁻¹] | kon [7] [M⁻¹ s⁻¹] | Kd [8] [nM] | koff [8] [s⁻¹] | kon [8] [M⁻¹ s⁻¹] | RAC [%] PLAP binding, stress A [9] [%] | RAC [%] PLAP binding, stress B [9] [%] | RAC [%] PLAP binding, unstressed [9] [%] | Binder |
| --- | --- | --- | --- | --- | --- | --- | --- | --- | --- | --- | --- | --- | --- | --- | --- | --- | --- | --- | --- |
| 100 | 98 | 100 | 37 | 40 | 98 | 45 | – | – | – | – | – | – | – | – | – | – | – | – | B1 |
| 100 | 96 | 100 | 21 | 22 | – | – | – | – | – | – | – | – | – | – | – | – | – | – | B2 |
| 97 | 99 | 100 | 36 | 34 | 37 | 52 | – | – | – | – | – | – | – | – | – | – | – | – | B3 |
| 99 | 97 | 100 | 35 | 35 | 98 | 48 | 99 | 98 | 100 | 0.5 | 0.000933 | 2.09e+06 | 0.0051 | 2.22e-05 | 4.33e+06 | 100 | 100 | 100 | B4 |
| 100 | 98 | 100 | 36 | 34 | – | – | – | – | – | – | – | – | – | – | – | – | – | – | B5 |
